Reference: PMC9864105

Biological target: recombinant HIV-1 RTIN (reverse transcriptase and integrase in fusion form, the Pol precursor intermediate) (HIV-1 (NL4-3))
Test: SEC

For “recombinant HIV-1 RTIN (reverse transcriptase and integrase in fusion form, the Pol precursor intermediate) (enzyme)”, which share of rRTIN in the hexamer or higher multimer is on record?
The share of rRTIN in the hexamer or higher multimer was 80%.
